Source: article PMC8924211 (Nature Communications, 2022)

Key:
Test in all cases: AlphaScreen or HTRF; saturation binding: HEK293 cells transfected with SNAP-tagged receptor (WT or mutant) and labelled with SNAP-Lumi4-Tb, incubated with increasing concentrations of galanin-A2 in the presence or absence of 100 uM unlabeled galanin, 1 h at room temperature; HTRF ratio 665 nm/620 nm
Conditions in all cases: one partner purified
[1] = biological target: T1, N-terminal-SNAP-tagged GAL2R, wild type (human, UniProt O43603 1-387, Lumi4-Tb on the SNAP tag)
T1 construct: also called SNAP-GAL2R; GAL2R WT; source: HEK293, transfected, on cells; not shown: SNAP tag, N-terminal, kept
T1 sequence (looked up): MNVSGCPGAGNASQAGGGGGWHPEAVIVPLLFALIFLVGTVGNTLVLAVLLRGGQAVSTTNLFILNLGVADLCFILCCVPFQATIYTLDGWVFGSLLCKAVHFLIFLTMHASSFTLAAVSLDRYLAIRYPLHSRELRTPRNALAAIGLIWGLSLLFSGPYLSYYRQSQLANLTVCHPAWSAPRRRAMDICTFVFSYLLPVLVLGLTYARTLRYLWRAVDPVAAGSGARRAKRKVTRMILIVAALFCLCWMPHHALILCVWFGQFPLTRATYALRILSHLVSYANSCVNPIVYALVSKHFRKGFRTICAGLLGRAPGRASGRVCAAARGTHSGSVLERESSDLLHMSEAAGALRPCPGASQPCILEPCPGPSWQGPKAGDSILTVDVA

SNAP-GAL2R I256^6.55A = biological target: T2, SNAP-GAL2R I256^6.55A (human, UniProt O43603 1-387, I256^6.55A, Lumi4-Tb on the SNAP tag)
T2 construct: also called I256A; source: HEK293, transfected, on cells; not shown: SNAP tag, N-terminal, kept
T2 sequence (looked up): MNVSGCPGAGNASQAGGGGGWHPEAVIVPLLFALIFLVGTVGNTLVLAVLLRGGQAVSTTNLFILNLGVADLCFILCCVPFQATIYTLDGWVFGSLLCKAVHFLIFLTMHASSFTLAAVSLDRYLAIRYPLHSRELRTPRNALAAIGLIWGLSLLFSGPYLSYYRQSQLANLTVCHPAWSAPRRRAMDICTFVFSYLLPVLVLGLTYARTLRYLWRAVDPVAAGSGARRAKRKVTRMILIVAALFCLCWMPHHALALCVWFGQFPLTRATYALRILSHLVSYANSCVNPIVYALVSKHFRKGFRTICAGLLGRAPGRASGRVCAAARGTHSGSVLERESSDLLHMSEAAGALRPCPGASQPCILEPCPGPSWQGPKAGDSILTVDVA

SNAP-GAL2R T267^7.28A = biological target: T3, SNAP-GAL2R T267^7.28A (human, UniProt O43603 1-387, T267^7.28A, Lumi4-Tb on the SNAP tag)
T3 construct: also called T267A; source: HEK293, transfected, on cells; not shown: SNAP tag, N-terminal, kept
T3 sequence (looked up): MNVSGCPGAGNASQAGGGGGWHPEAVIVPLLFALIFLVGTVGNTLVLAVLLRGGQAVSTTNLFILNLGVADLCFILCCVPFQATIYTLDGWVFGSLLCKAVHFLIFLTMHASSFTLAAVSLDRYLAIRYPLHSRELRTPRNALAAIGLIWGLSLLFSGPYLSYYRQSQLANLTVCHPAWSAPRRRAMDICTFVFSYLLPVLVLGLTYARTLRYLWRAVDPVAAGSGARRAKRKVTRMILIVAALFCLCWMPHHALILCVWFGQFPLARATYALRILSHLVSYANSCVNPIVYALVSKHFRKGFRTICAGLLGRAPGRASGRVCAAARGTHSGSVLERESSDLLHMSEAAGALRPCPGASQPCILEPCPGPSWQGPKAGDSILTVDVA

SNAP-GAL2R R274^7.35A = biological target: T4, SNAP-GAL2R R274^7.35A (human, UniProt O43603 1-387, R274^7.35A, Lumi4-Tb on the SNAP tag)
T4 construct: also called R274A; source: HEK293, transfected, on cells; not shown: SNAP tag, N-terminal, kept
T4 sequence (looked up): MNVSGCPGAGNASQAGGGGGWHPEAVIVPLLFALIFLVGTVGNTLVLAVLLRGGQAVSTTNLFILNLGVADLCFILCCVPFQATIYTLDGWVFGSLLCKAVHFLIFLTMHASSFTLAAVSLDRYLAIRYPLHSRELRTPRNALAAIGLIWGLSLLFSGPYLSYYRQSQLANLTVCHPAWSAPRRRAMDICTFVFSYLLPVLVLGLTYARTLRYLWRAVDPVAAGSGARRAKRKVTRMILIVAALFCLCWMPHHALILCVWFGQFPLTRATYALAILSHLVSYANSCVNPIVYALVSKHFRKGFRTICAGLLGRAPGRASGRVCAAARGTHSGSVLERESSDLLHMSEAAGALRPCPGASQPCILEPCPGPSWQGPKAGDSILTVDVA

B1: galanin-A2 (full-length galanin labeled with the dye A2 on an additional cysteine at the C-terminal end) (peptide)
peptide: GWTLNSAGYLLGPHAVGNHRSFSDKNGLTSC
modifications: dye A2 on the additional C-terminal cysteine
notes: numbers count on: the mature protein; additional cysteine at the C-terminal end of the peptide, carries the dye A2; source: synthetic peptide (synthesized by Vazyme, China)
Work on B1 yielded a Kd [1] of 0.0217 µM, a Kd (SNAP-GAL2R I256^6.55A) of 0.221 µM and a Kd (SNAP-GAL2R T267^7.28A) of 0.229 µM. The Kd (SNAP-GAL2R R274^7.35A) was 0.553 µM.
